Experimental findings from US20220017629A1 (SHANGHAI PHARMAEXPLORER, published 2022) are described below.

Assay [1] has as its target T1, OX40 (antigen of the competitive ELISA of Example 5) (UniProt P43489 29-214).
T1 sequence (looked up): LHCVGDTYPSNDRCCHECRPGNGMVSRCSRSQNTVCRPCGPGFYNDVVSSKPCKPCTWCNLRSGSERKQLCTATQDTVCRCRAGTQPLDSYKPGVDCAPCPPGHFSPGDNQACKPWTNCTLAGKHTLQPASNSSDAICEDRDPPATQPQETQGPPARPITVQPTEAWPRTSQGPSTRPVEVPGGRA
Kind of assay: competitive ELISA; competitor MEDI0562.

Assay [2] deals with T1, OX40 (antigen of the competitive ELISA …). Kind of assay: competitive ELISA; competitor MOXR0916. In general terms: ELISA stands for enzyme-linked immunosorbent assay.
For assay [3] the target is unchanged. Kind of assay: competitive ELISA; competitor BMS-986178.
Assay [4] shares this target. Kind of assay: competitive ELISA; competitor PF-04518600.
Assay [5] addresses T2, human-derived OX40, full-length, on cells (human, UniProt P43489 29-277).
T2 construct: whole, on cells; also called hOX40; CHOK1-hOX40
T2 sequence (looked up): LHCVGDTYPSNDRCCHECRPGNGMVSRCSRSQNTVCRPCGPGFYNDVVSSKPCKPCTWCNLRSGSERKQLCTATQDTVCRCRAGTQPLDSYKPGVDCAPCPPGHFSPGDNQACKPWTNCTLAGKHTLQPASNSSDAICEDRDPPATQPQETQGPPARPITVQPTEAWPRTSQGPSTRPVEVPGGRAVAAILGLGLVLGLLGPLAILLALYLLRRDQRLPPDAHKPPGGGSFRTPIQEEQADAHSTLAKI
As to the kind of experiment: FACS on cells expressing human OX40 (CHOK1-hOX40).

B1: MAb058 (antibody, IgG1, V domains shown)
VH: EVQLQQSGPVLVKPGAAVKMSCKASGYIFTDYYIHWVKLSRGESLEWIGLINPYNGGTNYNQQFTGKATLTVDKSSSTAYVELNSLTSGDSAVYYCVRRTGYFDYWGQGTTLTVSS
VL: DVVMTQTPLSLPVSLGDQASISCRSSQSLVHSNGNTYLHWYLQKPGQSPKLLIYKVSNRFSGVPDRFSGSGSGTDFTLKISRVEAEDLGVYFCSQTTHVPYTFGGGTKLEIK
On to B1, for which the percentage of competition in assay [1] was 26%; in assay [2] it was -3%; in assay [3] it was -4%; in assay [4] it was 11%.

B2: MAb034 (antibody, IgG1, V domains shown)
VH: EVQLQQSGPVLVKPGASVKMSCKASGYTFTDFYMNWMRQSHGKSLEWIGVIDPYNGNTSYNQKFKGKATLTVDKSSSTAYMELNSLTSEDSAVYYCARGNYYYYAMDYWGQGTSVTVSS
VL: DIVLTQSPASLAVSLGQRATISCRASESVSIHGTHLMYWYQQKPGQPPKLLIYAASNLESGVPARFSGSGSETDFTLNIHPVEEEDAATFFCQQSIEDPPTFGGGTKLEIK
For B2, the percentage of competition was 13% in assay [1], 0% in assay [2], 93% in assay [3] and 5% in assay [4].

B3: Humab035-24 (antibody, V domains shown)
VH: QVQLVQSGAEVKKPGASVKVSCKASDYTFTDYEMHWVRQAPGQGLEWIGAIDPETGGTAYNQKFKDRVTMTADTSTSTVYMELSSLRSEDTAVYYCAKTGYQFDYWGQGTTVTVSS
VL: DIQMTQSPSSVSASVGDRVTITCKASQNVGSNVAWYQQKPGKAPKALIYSASYRYSGVPSRFSGSGSGTDFTLTISSLQPEDFATYYCQQYNSHPYTFGQGTKLEIK
On to B3, for which the binding result in assay [5] is on record as “binds”.

B4: MAb035 (antibody, IgG1, V domains shown)
VH: QVQLQQSGAELVRPGASVTLSCKASDYTFTDYEMHWVYQTPVHGLEWIGAIDPETGGTAYNQKFKDKAILTADKSSNTAYMELRSLTSEDSAVYFCTKTGYQFDYWGQGTTLTVSS
VL: DIVMTQSQKFMSTSVGDRVSVTCKASQNVGSNVAWYQQKPGQSPKALIYSASYRYSGVPDRFAGSGSGTDFTLTISNVQSEDLADYFCQQYNSHPYTFGGGTKLEIK
As to B4, the percentage of competition in assay [1] was 59%; in assay [2], 3%; in assay [3], 90%; in assay [4], -5%.

B5: MAb033 (antibody, IgG1, V domains shown)
VH: QVQLQQSGAELVRPGTAVRVSCKASGYAFTNYFIEWVKQRPGQGLEWIGVINPGSGDTYYSEKFQGKATLTADKSSSTAYMQLSSLTSEDSAVYFCAREDDYSWFTYWGQGTLVTVSA
VL: DIVLTQSPASLAVSLGQRATISCRASENVDNYGISFMHWYRQKPGQPPKLLIYRASNLESGIPARFSGSGSRTDFTLTINPVETDDVATYYCQQSNKDPYTFGGGTKLEIK
With B5, the percentage of competition in assay [1] was 7%; in assay [2], -1%; in assay [3], 81%; in assay [4] it was -7%.

B6: MAb049 (antibody, IgG1, V domains shown)
VH: EVQLQQSGPELVKPGASVKISCKASGHTLTDYYMNWVKQSHGKSPEWIGDINPNNDGIDYNQKFRGKAILTVDKSSSSFYMELRSLTSEDSAVYYCVGFVRGYFVSWGQGTTLTVSS
VL: DIQMTQTTSSLSASLGDRVTINCRASQDISNYLNWYQQKPDGTVKLLIYYTSRLRSGVPSRFSGSGSGTDYSLTINNLDQEDFATYFCQQGNTLPWTFGGGTKLEI
As to B6, the percentage of competition in assay [1] is 97%; in assay [2], 90%; in assay [3] it was 0%; in assay [4], -2%.

B7: MAb041 (antibody, IgG1, V domains shown)
VH: EVQLVESGGGLVKPGGSLKLSCAVSGFTFSNSAMSWVRQTPEKRLEWVATITDGGDYTYYSDNVKGRFTISRDNAKNNLYLQMSHLKSEDTAMYYCVRGISYWGQGTLVTVS
VL: DIVLTQSPASLAVSLGQRATISCRASKSVSTSSDSYMHWYQQKPGQPPKLLIKYASNLESGVPVRFSGSGSGTDFTLNIHPVEEEDAATYYCQHSREFPWTFGGGTKLEIK
With B7, the percentage of competition in assay [1] was 2%; in assay [2], 1%; in assay [3] it was -6%; in assay [4], -8%.

B8: MAb064 (antibody, IgG2c, V domains shown)
VH: QVQLKESGPGLVAPSQTLSITCSVSGFSLTNYAVSWVRQPPGKGLEWLGVMWGDGNTNYHSTLISRLSISKDNSKSQVFLKLNSLQTDDTATYYCARSSGWYFDVWGTGTTVTVSS
VL: DIQMTQTTPSLSVTLGDRVTIRCRASQDINNYLNWYQQKPDGTVKLLIYYTSESRSGVPSRFSGSGSGTDYSLTISNLEQEDIATYFCQQGYALPPAFGGGTKLEIK
Turning to B8, the percentage of competition was 96% in assay [1], 90% in assay [2], 1% in assay [3] and 4% in assay [4].

B9: MAb053 (antibody, IgG2c, V domains shown)
VH: QVQLKQSGPGLVQPSQSLSIICTVSGFSLSDYGVMWVRQSPGKGLEWLGVIWSGGSTDYNAAFTSRLSISRDNSKRQVIFKMNSLQAEDTAIHYCVRETMDYWGQGTSVTVS
VL: DIQMTQTTSSLSASLGDRVTISCRASQDISNYLNWYQQRPDGTVKRLIYYTSRLHSGVPSRFSGSGSGTDYSLTISSLEQEDIATYFCQQAHTLPWTFGGGTKLEIK
Regarding B9, the percentage of competition in assay [1] was 11%; in assay [2], -2%; in assay [3] it was 2%; in assay [4], 93%.

B10: MAb055 (antibody, IgG1, V domains shown)
VH: QVQLKQSGPGLLQPSQSLSITCTVSGFSLDEYGVHWFRQSPGKGLEWLGVIWSGGSTDYNAAFISRLSIRKDNSKSQIFFNMNSLQADDTAIYYCVREEWEYWGQGTTLTVS
VL: DIQMTQTTSSLSASLGDRVTISCRPSQDIDNYLNWFQQRPDGTIKLLIYYTSRLHSGVPSRFSGSGSGTDYSLTINNLEQEDIATYFCQQAHTLPYTFGGGTKLEIK
As for B10, the percentage of competition in assay [1] was 16%; in assay [2] it was -3%; in assay [3] it was 3%; in assay [4] it was 95%.

B11: MAb047 (antibody, IgG2c, V domains shown)
VH: EVQLVESGGGLVKPGGSLKLSCAASGFTFSDYGMYWIRQAPEKGLEWVAYISNGGSSIYYADTVKGRFTVSRDNAKNTLFLQMTSLRSEDTAIYYCARGGELGFAYWGQGTLVTVSA
VL: DIQMTQSPASLSVSVGETVTITCRASENIYSNLAWYQQKQGKSPQLLVYAAINLVEGVPSRFSGSGSGTQYSLKINSLQSEDFGSYFCQHFWGLPYTFGGGTKLE
On to B11, for which the percentage of competition in assay [1] was 97%; in assay [2] it was -3%; in assay [3] it was 0%; in assay [4], -2%.
